Data as given in patent US10919953 (dated 2021).
Where a chain is given by its changes, count along the chain named. Read-outs that look alike come from different tables or passages of the source.

Key:
FcgRIIb [1] = molecular target: T1, FcgRIIb (human, UniProt P31994); assay: SPR
T1 chain: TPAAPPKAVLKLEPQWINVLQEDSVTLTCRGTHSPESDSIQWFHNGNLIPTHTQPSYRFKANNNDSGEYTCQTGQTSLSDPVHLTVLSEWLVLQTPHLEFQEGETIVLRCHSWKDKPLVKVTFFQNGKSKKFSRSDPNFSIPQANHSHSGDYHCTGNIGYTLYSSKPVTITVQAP

FcgRIa [2] = molecular target: T2, FcgRIa (human, UniProt P12314); assay: SPR
T2 chain: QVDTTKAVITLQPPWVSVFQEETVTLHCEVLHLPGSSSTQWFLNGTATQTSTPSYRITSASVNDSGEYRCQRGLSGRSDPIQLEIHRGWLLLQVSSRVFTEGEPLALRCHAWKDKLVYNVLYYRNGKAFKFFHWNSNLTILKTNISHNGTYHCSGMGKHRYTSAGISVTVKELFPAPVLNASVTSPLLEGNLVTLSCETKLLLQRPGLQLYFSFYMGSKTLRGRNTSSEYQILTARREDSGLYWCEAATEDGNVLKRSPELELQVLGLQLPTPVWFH

FcgRIIaR [3] = molecular target: T3, FcgRIIaR (human, UniProt P12318); assay: SPR
T3 chain: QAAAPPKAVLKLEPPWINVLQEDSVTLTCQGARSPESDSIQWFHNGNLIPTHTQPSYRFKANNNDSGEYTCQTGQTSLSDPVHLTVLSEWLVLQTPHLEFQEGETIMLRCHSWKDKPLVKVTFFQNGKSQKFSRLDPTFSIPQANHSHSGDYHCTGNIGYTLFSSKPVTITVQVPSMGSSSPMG

FcgRIa [4] = molecular target: T2, FcgRIa; assay: SPR
FcgRIIb [5] = molecular target: T1, FcgRIIb; assay: SPR
FcgRIIb [6] = molecular target: T1, FcgRIIb; assay: SPR
FcgRIIaR [7] = molecular target: T3, FcgRIIaR; assay: SPR
FcgRIIaR [8] = molecular target: T3, FcgRIIaR; assay: SPR
FcgRIIb [9] = molecular target: T1, FcgRIIb; assay: SPR
FcgRIIaH = molecular target: T4, FcgRIIaH (human, UniProt P12318); assay: SPR
T4 chain: T3 chain with R134H

FcgRIa [10] = molecular target: T2, FcgRIa; assay: SPR
FcgRIIb [11] = molecular target: T1, FcgRIIb; assay: SPR
FcgRIIaR [12] = molecular target: T3, FcgRIIaR; assay: SPR
FcgRIa [13] = molecular target: T2, FcgRIa; assay: SPR
human FcRn = human FcRn (human, UniProt P55899); assay: SPR, pH 6.0, 25C
FcgRIa [14] = molecular target: T2, FcgRIa; assay: SPR
FcgRIIaR [15] = molecular target: T3, FcgRIIaR; assay: SPR

Chain of human FcRn (P55899 24-297, chain 1 of 2): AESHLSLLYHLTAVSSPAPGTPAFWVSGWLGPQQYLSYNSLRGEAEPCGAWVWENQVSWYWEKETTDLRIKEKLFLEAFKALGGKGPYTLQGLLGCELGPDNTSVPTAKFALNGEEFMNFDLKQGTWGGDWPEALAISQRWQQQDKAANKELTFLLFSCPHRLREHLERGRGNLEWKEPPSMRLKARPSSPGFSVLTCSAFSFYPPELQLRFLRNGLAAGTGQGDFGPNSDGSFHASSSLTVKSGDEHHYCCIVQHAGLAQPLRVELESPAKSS
Chain of human FcRn (chain, as listed by the source, chain 2 of 2): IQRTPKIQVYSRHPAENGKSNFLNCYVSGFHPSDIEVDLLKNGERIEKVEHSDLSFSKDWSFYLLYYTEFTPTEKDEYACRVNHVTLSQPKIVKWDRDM

B1: IL6R-BP478/IL6R-L (antibody)
chain 1: QVQLQESGPGLVKPSETLSLTCAVSGHSISHDHAWSWVRQPPGEGLEWIGFISYSGITNYNPSLQGRVTISRDNSKNTLYLQMNSLRAEDTAVYYCARSLARTTAMDYWGEGTLVTVSSASTKGPSVFPLAPCSRSTSESTAALGCLVKDYFPEPVTVSWNSGALTSGVHTFPAVLQSSGLYSLSSVVTVPSSSLGTKTYTCNVDHKPSNTKVDKRVESKYGPPCPPCPAPDLLGDDSVFLFPPKPKDTLMISRTPEVTCVVVDVSDEDGEVKFNWYVDGVEVHNAKTKPREEQDNSTYRVVSVLTVLHQDWLNGKEYKCKVSNKALPRPIEKTISKAKGQPREPQVYTLPPSRDELTKNQVSLTCLVKGFYPSDIAVEWESNGQPENNYKTTPPVLDSDGSFFLYSKLTVDKSRWQQGNVFSCSVMHEALHNHYTQESLSLSP
chain 2: not shown
Kd (FcgRIIb [1]): 19 nM
Kd (FcgRIa [2]): 7.7 nM
Kd (FcgRIIaR [3]): 540 nM

B2: IL6R-BP471/IL6R-L (antibody)
chain 1: QVQLQESGPGLVKPSETLSLTCAVSGHSISHDHAWSWVRQPPGEGLEWIGFISYSGITNYNPSLQGRVTISRDNSKNTLYLQMNSLRAEDTAVYYCARSLARTTAMDYWGEGTLVTVSSASTKGPSVFPLAPSSKSTSGGTAALGCLVKDYFPEPVTVSWNSGALTSGVHTFPAVLQSSGLYSLSSVVTVPSSSLGTQTYICNVNHKPSNTKVDKKVEPKSCDKTHTCPPCPAPDLLGDDSVFLFPPKPKDTLMISRTPEVTCVVVDVSDEDGEVKFNWYVDGVEVHNAKTKPREEQDNSTYRVVSVLTVLHQDWLNGKEYKCKVSNKALSRPIEKTISKAKGQPREPQVYTLPPSRDELTKNQVSLTCLVKGFYPSDIAVEWESNGQPENNYKTTPPVLDSDGSFFLYSKLTVDKSRWQQGNVFSCSVMHEALHNHYTQESLSLSP
chain 2: not shown
Kd (FcgRIIb [1]): 35 nM
Kd (FcgRIa [2]): 7.3 nM
Kd (FcgRIIaR [3]): 800 nM

B3: IL6R-BP267/IL6R-L (antibody)
chain 1: B2 chain 1 with D270E, D298Y, S331P, R332A
chain 2: not shown
Kd (FcgRIa [4]): 4 nM

B4: IL6R-BP239/IL6R-L (antibody)
chain 1: B2 chain 1 with L236Y, S269Q, K328A, S331P
chain 2: not shown
Kd (FcgRIIb [5]): 60 nM

B5: IL6R-BP338/IL6R-L (antibody)
chain 1: B2 chain 1 with V266L, D270E, D298Y, S331P, R332A
chain 2: not shown
Kd (FcgRIIb [6]): 150 nM
Kd (FcgRIIaR [7]): 2200 nM
Kd (FcgRIa [4]): 15 nM

B6: IL6R-AP002/IL6R-BP256/IL6R-L (antibody)
chain 1: B2 chain 1 with D298Y, S331P, D358K, H437R, E441K
chain 2: B2 chain 1 with S126D, D298Y, S331P
chain 3: not shown
Kd (FcgRIIaR [8]): 140 nM
Kd (FcgRIIb [9]): 4.1 nM
Kd (FcgRIIaH): 4.2 µM
Kd (FcgRIa [10]): 3.6 nM

B7: IL6R-BP333/IL6R-L (antibody)
chain 1: B2 chain 1 with V266F, D270E, D298Y, S331P, R332A
chain 2: not shown
Kd (FcgRIIb [6]): 120 nM
Kd (FcgRIIaR [7]): 1500 nM
Kd (FcgRIa [4]): 9.1 nM

B8: IL6R-BP300/IL6R-L (antibody)
chain 1: B2 chain 1 with V264I, D270E, D298Y, S331P, R332A
chain 2: not shown
Kd (FcgRIIb [6]): 58 nM
Kd (FcgRIIaR [7]): 690 nM
Kd (FcgRIa [4]): 9.6 nM

B9: IL6R-BP230/IL6R-L (antibody)
chain 1: B2 chain 1 with S331P
chain 2: not shown
Kd (FcgRIIb [11]): 18 nM
Kd (FcgRIIaR [12]): 490 nM
Kd (FcgRIa [13]): 10 nM

B10: Fv4-P587-LS (antibody)
chain 1: B2 chain 1 with D239G, V266I, S269A, D270E, D298Y, S331P, R332A, M430L, N436S, E441K
chain 2: DIQMTQSPSSLSASVGDSVTITCQASTDISSHLNWYQQKPGKAPELLIYYGSHLLSGVPSRFSGSGSGTDFTFTISSLEAEDAATYYCGQGNRLPYTFGQGTKVEIERTVAAPSVFIFPPSDEQLKSGTASVVCLLNNFYPREAKVQWKVDNALQSGNSQESVTEQDSKDSTYSLSSTLTLSKADYEKHKVYACEVTHQGLSSPVTKSFNRGEC
Kd (human FcRn): 120 nM

B11: IL6R-BP228/IL6R-L (antibody)
chain 1: B2 chain 1 with D235E, L236Y, S269Q, D298Y, K328D, S331P
chain 2: not shown
Kd (FcgRIIb [5]): 40 nM

B12: IL6R-BP243/IL6R-L (antibody)
chain 1: B2 chain 1 with L236Y, D298Y, S331P
chain 2: not shown
Kd (FcgRIa [14]): 3 nM

B13: IL6R-BP223/IL6R-L (antibody)
chain 1: B2 chain 1 with D235E, L236Y, D298Y, K328A, S331P
chain 2: not shown
Kd (FcgRIIaR [15]): 600 nM

B14: Fv4-P587 (antibody)
chain 1: B2 chain 1 with D239G, V266I, S269A, D270E, D298Y, S331P, R332A, E441K
chain 2: B10 chain 2
Kd (human FcRn): 1500 nM

B15: IL6R-BP246/IL6R-L (antibody)
chain 1: B2 chain 1 with S269Q, K328A, S331P
chain 2: not shown
Kd (FcgRIa [14]): 8 nM

B16: IL6R-BP237/IL6R-L (antibody)
chain 1: B2 chain 1 with L236Y, S269Q, K328A, S331P, R332K
chain 2: not shown
Kd (FcgRIIb [5]): 100 nM

B17: IL6R-AP009/IL6R-BP259/IL6R-L (antibody)
chain 1: B2 chain 1 with S331P, D358K, H437R, E441K
chain 2: B2 chain 1 with S126D, S331P
chain 3: not shown
Kd (FcgRIIaR [8]): 190 nM
Kd (FcgRIIb [9]): 3.9 nM
Kd (FcgRIIaH): 6.6 µM
Kd (FcgRIa [10]): 3.5 nM

B18: IL6R-BP339/IL6R-L (antibody)
chain 1: B2 chain 1 with V266M, D270E, D298Y, S331P, R332A
chain 2: not shown
Kd (FcgRIIb [6]): 130 nM
Kd (FcgRIIaR [7]): 1400 nM
Kd (FcgRIa [4]): 4.6 nM

B19: IL6R-AP002/IL6R-BP257/IL6R-L (antibody)
chain 1: B2 chain 1 with D298Y, S331P, D358K, H437R, E441K
chain 2: B2 chain 1 with S126E, D298Y, S331P
chain 3: not shown
Kd (FcgRIIaR [8]): 130 nM
Kd (FcgRIIb [9]): 4.7 nM
Kd (FcgRIIaH): 4.9 µM
Kd (FcgRIa [10]): 1.9 nM

B20: IL6R-AP009/IL6R-BP260/IL6R-L (antibody)
chain 1: B2 chain 1 with S331P, D358K, H437R, E441K
chain 2: B2 chain 1 with S126E, S331P
chain 3: not shown
Kd (FcgRIIaR [8]): 140 nM
Kd (FcgRIIb [9]): 4.2 nM
Kd (FcgRIIaH): 5.4 µM
Kd (FcgRIa [10]): 1.7 nM

B21: Fv4-IgG1 (antibody)
chain 1: not shown
chain 2: B10 chain 2
Kd (human FcRn): 1400 nM
